According to patent publication US20230095004 (Aptitude Medical Systems, Inc., published 2023):

How the values were obtained:
VEGF-165 (VEGF-A) [1] = biological target: T1, VEGF-165 (VEGF-A) (Homo sapiens); assay: competition; VEGF receptor competition; conditions: tags: recombinant; chain copies: 2
T1 chain: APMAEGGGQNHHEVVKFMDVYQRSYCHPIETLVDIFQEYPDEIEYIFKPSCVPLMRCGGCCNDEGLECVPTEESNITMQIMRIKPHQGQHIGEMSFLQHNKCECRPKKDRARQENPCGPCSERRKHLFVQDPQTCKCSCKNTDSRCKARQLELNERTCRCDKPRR

Angiopoietin-2 (Ang2) [2] = biological target: T2, Angiopoietin-2 (Ang2) (Homo sapiens, UniProt O15123 O15123:19-496); assay: competition; Ang2/Tie2 competition (column printed Tier2); conditions: tags: His tag; R&D Systems 623-AN
Angiopoietin-2 (Ang2) [3] = biological target: T2, Angiopoietin-2 (Ang2); assay: competition; Ang2/Tie2 inhibition; conditions: tags: His tag; R&D Systems 623-AN
VEGF-165 (VEGF-A) [4] = biological target: T1, VEGF-165 (VEGF-A); assay: competition; VEGF/VEGFR2 inhibition; conditions: tags: R&D Systems 293-VE-050; chain copies: 2
VEGF-165 (VEGF-A) [5] = biological target: T1, VEGF-165 (VEGF-A); assay: flow; PBSMCT, 37 C; conditions: tags: recombinant; chain copies: 2; label: biotin
VEGF-121 (VEGF-A) [6] = biological target: T3, VEGF-121 (VEGF-A) (Homo sapiens, UniProt P15692 SEQ:1-121); assay: flow; bead-bound aptamer; PBSMCT 2.5 mM MgCl2 1 mM CaCl2, 37 C; conditions: tags: recombinant; chain copies: 2; label: biotin
VEGF-121 (VEGF-A) [7] = biological target: T3, VEGF-121 (VEGF-A); assay: flow; PBSMCT, 37 C; conditions: tags: recombinant; chain copies: 2; label: biotin
VEGF-165 (VEGF-A) [8] = biological target: T1, VEGF-165 (VEGF-A); assay: competition; VEGFR2 competition ELISA, 50 pM VEGF-165, 37 C; conditions: tags: recombinant, chain copies: 2

T2 sequence (O15123 19-496, one chain of several): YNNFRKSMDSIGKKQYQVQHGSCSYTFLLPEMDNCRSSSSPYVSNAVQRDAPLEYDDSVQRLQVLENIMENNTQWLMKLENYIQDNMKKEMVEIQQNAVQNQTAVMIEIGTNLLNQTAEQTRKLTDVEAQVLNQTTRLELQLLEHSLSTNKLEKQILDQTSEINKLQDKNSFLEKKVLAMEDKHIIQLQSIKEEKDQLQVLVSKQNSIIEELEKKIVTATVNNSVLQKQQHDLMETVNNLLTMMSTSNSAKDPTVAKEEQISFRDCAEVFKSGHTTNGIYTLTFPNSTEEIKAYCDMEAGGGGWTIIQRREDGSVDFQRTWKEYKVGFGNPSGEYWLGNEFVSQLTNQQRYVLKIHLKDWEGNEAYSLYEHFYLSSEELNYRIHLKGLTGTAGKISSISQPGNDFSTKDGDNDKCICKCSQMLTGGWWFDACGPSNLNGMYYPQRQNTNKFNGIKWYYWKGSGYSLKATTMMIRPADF

B1: AMSB107.P40K (ssRNA)
RNA: UGCAUGCAUUUUACCAGUGAGUCGGAUCUCCGCAUAGAUAAGCCAACAAACGUACAUUCUCUGUUAGUAUUUUCUGCG
modifications: 2'-F all nucleotides; 5' 40 kDa PEG (SEQ 203 as printed in the description)
IC50 (VEGF-165 (VEGF-A) [1]): 0.036 nM
IC50 (Angiopoietin-2 (Ang2) [2]): 0.045 nM

B2: AMSB107 (ssRNA)
RNA: B1 RNA
modifications: 2'-F all
IC50 (Angiopoietin-2 (Ang2) [3]): ~0.1 nM
IC50 (VEGF-165 (VEGF-A) [4]): 0.073 nM

B3: AMS0433.0 (ssRNA)
RNA: ACCCUUGCUUGCGUAGCAUUUUACCAGUGAGUCGGAUCUC
modifications: 2'-F all nucleotides
Kd (VEGF-165 (VEGF-A) [5]): 11.1 nM
Kd (VEGF-121 (VEGF-A) [6]): 15.2 nM

B4: AMS0433 (ssRNA)
RNA: UGCAUGCAUUUUACCAGUGAGUCGGAUCUCCGCAUAUCUGCG
modifications: 2'-F all nucleotides
Kd (VEGF-165 (VEGF-A) [5]): 0.041 nM
Kd (VEGF-121 (VEGF-A) [7]): 0.052 nM
IC50 (VEGF-165 (VEGF-A) [8]; label: biotin): 0.037 nM

B5: AMS0433.m6 (ssRNA)
RNA: B4 RNA
modifications: mixed 2'-F and 2'-OMe: mUmGmCmAmUmGmCmAmUmUmUmUmAmCfCfAfGfUfGfAfGfUmCfGfGfAmUfCfUfCfCfGfCfAfUfAfUfCfUfGfCfG
IC50 (VEGF-165 (VEGF-A) [8]): 0.041 nM

B6: AMS0433.m4 (ssRNA)
RNA: B4 RNA
modifications: mixed 2'-F and 2'-OMe: fUfGfCfAfUfGfCfAmUmUmUmUmAmCfCfAfGfUfGfAfGfUmCfGfGfAmUfCfUfCmCmGmCmAmUmAmUmCmUmGmCmG
IC50 (VEGF-165 (VEGF-A) [8]): 0.04 nM
